In patent publication US20260265800A1, “NEW FUCOSYLTRANSFERASES FOR IN VIVO SYNTHESIS OF LNFP-III” (DSM IP Assets B.V., priority 2022, published 2026):
Where a chain is given by its changes, count along the chain named. Values joined by “and” are separate entries in the source; they are usually repeats but may differ in a detail not shown here. Equal values may be shown once.

What was measured:
[1] = tested on: LNnT; assay: Deep well assay: HMO profile of LNnT-producing strains expressing α-1,3-fucosyltransferases (HPLC); assay type: cell-based, Escherichia coli; settings: for LNFP-III, % of total HMO molar (mM) content produced by each strain: lactose as substrate, FT copy nr as in table 7 (enzyme names in text: single copy)
Description: Deep Well Assays in the current examples were performed as originally described to Lv et al (Bioprocess Biosyst Eng 20 (2016) 39:1737-1747) and optimized for the purposes of the current invention. More specifically, the strains disclosed in the present example were screened in 96 deep well plates using a 4-day protocol. During the first 24 hours, precultures were grown to high densities (OD600 up to 5) and subsequently transferred to a medium that allowed induction of gene expression and product formation.
More specifically, during day 1, fresh precultures were prepared using a basal minimal medium (BMM) (pH 7.0) supplemented with magnesium sulphate (0.12 g/L), thiamine (0.004 g/L) and glucose (5.5 g/L). Basal Minimal medium had the following composition: NaOH (1 g/L), KOH (2.5 g/L), KHzPO4 (7 g/L), NH&HzPO4 (7 g/L), Citric acid (0.5 g/l), trace mineral solution (5 mL/L). The trace mineral stock solution contained; ZnSO~*7H~O 0.82 g/L, Citric acid 20 g/L, Mn$04*H&O 0.98 g/L, FeSO4*7H&O 3.925 g/L, CuSO4*5H~O 0.2 g/L. The pH of the Basal Minimal Medium was adjusted to 7.0 with 5 N NaOH and autoclaved. The precultures were incubated for 24 hours at 34° C. and 1000 rpm shaking and then further transferred to 0.75 ml of a new BMM (pH 7,5) to start the main culture. The new BMM was supplemented with magnesium sulphate (0.12 g/L), thiamine (0.02 g/L), a bolus of glucose solution (0.1-0.15 g/L) and a bolus of lactose solution (5-20 g/L) Moreover, a 20% stock solution of sucrose (40-45 g/L) or maltodextrin (19-20 g/L) was provided as carbon source, accompanied by the addition of a specific hydrolytic enzyme, sucrose hydrolase or glycoamylase, respectively, so that glucose was released at a rate suitable for carbon-limited growth and similar to that of a typical fed-batch fermentation process. The main cultures were incubated for 72 hours at 28° C. and 1000 rpm shaking. For the analysis of total broth, the 96 well plates were boiled at 100° C., subsequently centrifuged, and finally the supernatants were analysed by HPLC.
Genetically modified cells expressing individual α-1,3-fucosyltransferase enzymes were screened for their ability to produce the fucosylated HMO LNFP-III.
Genetically modified strains expressing the six individual α-1,3-fucosyltransferases (table 5) were generated as described in the “Method” section. The cells were screened in the deep well assay setup as described in the “Method” section.
The molar content of individual HMOs produced by the strains was measured by HPLC.
The results of the LNFP-III producing cells are shown in table 7 as the fraction of the total molar HMO content (in percentage, %) produced by each strain.

[2] = tested on: β-galactosidase activity; settings: LacZ assay, cited from earlier work; for % Activity relative to PglpF: PglpF as positive reference, a range indicates results from multiple assays
[3] = FT copy nr as in table 7, listed as FutT109

B1: FutB: prior art α-1,3-fucosyltransferase from Helicobacter pylori, GenBank WP_000487430.1, SEQ ID NO: 6 (protein, listed as Helicobacter pylori)
chain: MFQPLLDAFIESASIEKMVSKSPPPPLKIAVANWWGDEEIKEFKKSVLYFILSQRYAITLHQNPNESSDLVFSNPLGAARKILSYQNTKRVFYTGENESPNFNLFDYAIGFDELDFNDRYLRMPLYYAHLHYEAELVNDTTAPYKLKDNSLYALKKPSHHFKENHPNLCAVVNDESDLLKRGFASFVASNANAPMRNAFYDALNSIEPVTGGGSVRNTLGYKVGNKSEFLSQYKFNLCFENSQGYGYVTEKILDAYFSHTIPIYWGSPSVAKDFNPKSFVNVHDFNNFDEAIDYIKYLHTHPNAYLDMLYENPLNTLDGKAYFYQDLSFKKILDFFKTILENDTIYHNNPFIFYRDLHEPLISIDDLRVNYDDLRVNYDDLRVNYDDLRVNYDDLRVNYDDLRVNYDDLRVNYDDLRVNYDDLRVNYDDLRVNYDRLLQNASPLLELSQNTTFKIYRKAYQKSLPLLRTIRRWVKK
[1]; FT copy nr as in table 7
  LNDFH-III, % of total HMO molar (mM) content produced by each strain: 0.0 ± 0.0%
  LNnT, % of total HMO molar (mM) content produced by each strain: 78.9 ± 0.4%
  pLNnH, % of total HMO molar (mM) content produced by each strain: 13.2 ± 0.2%
[1]
  LNFP-III, % of total HMO molar (mM) content produced by each strain: 6% and 6.2 ± 0.5%

B2: PmglB_70UTR_SD8: promoter sequence, SEQ ID NO: 16 (nucleic acid)
DNA: TGCGTCGCCATTCTGTCGCAACACGCCAGAATGCGGCGGCGATCACTAACTCAACAAATCAGGCGATGTAACCGCTTTCAATCTGTGAGTGATTTCACAGTATCTTAACAATGTGATAGCTATGATTGCACCGTGCCTACAAGCATCGTGGAGGTCCGTGACTTTCACGCATACAACAAACATTAACCAAGAGAAAAACAGCT
[2]
  % Activity relative to PglpF: 291%
  Strength: high (A regulatory element with an activity above 10,000 MU is considered strong)

B3: PmglB_70UTR_SD10: promoter sequence, SEQ ID NO: 17 (nucleic acid)
DNA: B2 DNA with G191C, A192T, A195G
[2]
  % Activity relative to PglpF: 233-281%
  Strength: high (A regulatory element with an activity above 10,000 MU is considered strong)

B4: FucT109: prior art α-1,3-fucosyltransferase from Bacteroides fragilis ATCC 25285, GenBank CAH09151.1, SEQ ID NO: 42 (protein, listed as Bacteroides fragilis)
chain: MCDCLSIILLVKMKKIYLKFVDFWDGFDTISNFIVDALSIQYEVVLSNEPDYLFYSCFGTSHLEYDCIKIMFIGENIVPDFNVCDYAIGFNYIDFGDRYLRLPLYAIYDGFSNLQNKKIDVNKALDRKFCSIVVSNNKWADPIRETFFKLLSSYKKVDSGGRAWNNIGGPVDNKLDFISQYKFNIAFENSRVLGYTTEKIMEPMQVNSIPVYWGNPLVGKDFNVDSFVNAHDFDSLERLVEYIIELDSSKDKYLEMLEKPWLLDKTYLDWKQLLLNFINNIMMKSYKDAKYLVNYGHAGKYRNEQRFWGRCERKFKLQRIIEYYSQLFDRK
[1]; FT copy nr as in table 7
  3-FL, % of total HMO molar (mM) content produced by each strain: 2.0 ± 1.8%
  LNFP-VI, % of total HMO molar (mM) content produced by each strain: 18%
  LNnT, % of total HMO molar (mM) content produced by each strain: 28.7 ± 1.6%
  pLNnH, % of total HMO molar (mM) content produced by each strain: 0.8 ± 0.7%
[1]; [3]
  LNDFH-III, % of total HMO molar (mM) content produced by each strain: 24% and 23.9 ± 1.8%
  LNFP-VI, % of total HMO molar (mM) content produced by each strain: 18.0 ± 2.6%
[1]
  LNFP-III, % of total HMO molar (mM) content produced by each strain: 26%
[1]; listed as FutT109
  LNFP-III, % of total HMO molar (mM) content produced by each strain: 26.6 ± 3.5%

B5: CafD: prior art α-1,3-fucosyltransferase from Helicobacter hepaticus ATCC 51449, GenBank AAP76669.1, SEQ ID NO: 41 (protein, listed as Helicobacter hepaticus)
chain: MKDDLVILHPDGGIASQIAFVALGLAFEQKGAKVKYDLSWFAEGAKGFWNPSNGYDKVYDITWDISKAFPALHIEIANEEEIERYKSKYLIDNDRVIDYAPPLYCYGYKGRIFHYLYAPFFAQSFAPKEAQDSHTPFAALLQEIESSPSPCGVHIRRGDLSQPHIVYGNPTSNEYFAKSIELMCLLHPQSSFYLFSDDLAFVKEQIVPLLKGKTYRICDVNNPSQGYLDLYLLSRCRNIIGSQGSMGEFAKVLSPHNPLLITPRYRNIFKEVENVMCVNWGESVQHPPLVCSAPPPLVSQLKRNAPLNSRLYKEKDNASA
[1]; FT copy nr as in table 7
  3-FL, % of total HMO molar (mM) content produced by each strain: 0.0 ± 0.0%
  LNDFH-III, % of total HMO molar (mM) content produced by each strain: 0.0 ± 0.0%
  LNFP-VI, % of total HMO molar (mM) content produced by each strain: 0.0 ± 0.0%
  LNnT, % of total HMO molar (mM) content produced by each strain: 81.9 ± 1.3%
  pLNnH, % of total HMO molar (mM) content produced by each strain: 18.1 ± 1.3%
[1]
  LNFP-III, % of total HMO molar (mM) content produced by each strain: 0.0 ± 0.0%
[1]; single copy
  production of fucosylated HMOs (fucosylation of LNnT or lactose): does not produce any fucosylated HMOs

B6: Plac_70UTR: promoter sequence, SEQ ID NO: 19 (nucleic acid)
DNA: TGTGAGTTAGCTCACTCATTAGGCACCCCAGGCTTTACACTTTATGCTTCCGGCTCGTATGTTGTGTGGAATGCCTACAAGCATCGTGGAGGTCCGTGACTTTCACGCATACAACAAACATTAACCAAGGAGGAAACAGCT
[2]
  % Activity relative to PglpF: 182-220%
  Strength: high (A regulatory element with an activity above 10,000 MU is considered strong)

B7: PmglB_54UTR: promoter sequence, SEQ ID NO: 18 (nucleic acid)
DNA: TGCGTCGCCATTCTGTCGCAACACGCCAGAATGCGGCGGCGATCACTAACTCAACAAATCAGGCGATGTAACCGCTTTCAATCTGTGAGTGATTTCACAGTATCTTAACAATGTGATAGCTATGATTGCACCGTGCCTACAAGCATCGTGGAGGTCCGTGACTTTCACGCATACAACAAACATTAACAAAAACCGGAGATACC
[2]
  % Activity relative to PglpF: 197%
  Strength: high (A regulatory element with an activity above 10,000 MU is considered strong)

B8: PglpA_16UTR: promoter sequence, SEQ ID NO: 36 (nucleic acid)
DNA: GAAAACATTCATAAATTAAATGTGAATTGCCGCACACATTATTAAATAAGATTTACAAAATGTTCAAAATGACGCATGAAATCACGTTTCACTTTCGAATTATGAGCGAATATGCGCGATGCCTACAAGCATCGTGGAGGTCCGTGACTTTCACGCATACAACAAACATTAACCAAGGAGGAAACAGCT
[2]
  % Activity relative to PglpF: 38-64%
  Strength: middle (what is in between has intermediate strength)

B9: PglpF_SD3: promoter sequence, SEQ ID NO: 38 (nucleic acid)
DNA: GCGGCACGCCTTGCAGATTACGGTTTGCCACACTTTTCATCCTTCTCCTGGTGACATAATCCACATCAATCGAAAATGTTAATAAATTTGTTGCGCGAATGATCTAACAAACATGCATCATGTACAATCAGATGGAATAAATGGCGCGATAACGCTCATTTTATGACGAGGCACACACATTTTAAGTTCGATATTTCTCGTTTTTGCTCGTTAACGATAAGTTTACAGCATGCCTACAAGCATCGTGGAGGTCCGTGACTTTCACGCATACAACAAACATTAACCAAGAACAAAACAGCT
[2]
  % Activity relative to PglpF: 9%
  Strength: low (a regulatory element with an activity below 3,000 MU is considered weak)

B10: PglpF_SD1: promoter sequence, SEQ ID NO: 39 (nucleic acid)
DNA: B9 DNA with G288A, A289T, A290T, A292G
[2]
  % Activity relative to PglpF: 5%
  Strength: low (a regulatory element with an activity below 3,000 MU is considered weak)

B11: Camp1: α-1,3-fucosyltransferase from Campylobacter sp., GenBank MBP3676691.1, SEQ ID NO: 1 (protein, listed as Campylobacter sp.)
chain: MRKDLVIIRVDGGIASQIAFVALGLEFESRGYKVKYDLSWFDEFGNGFYNEQNGYDRSYNITFDIPKAFPDIKCEIASRDEIEIYRKKYFVDNEEVIELKPPLYVGGYLGRHFDFKYRDFFAKHFNPKEIQESDSECKILLDNILSNHSCGVHIRMGDLSKEHVVYGKPLSVEYFLKNIQLVLQIEPKSKFYFFSDDLEWVKKKVIPSLHSIEYEICNVNSVEKGYLDLYLLSRCKIIIASQGSMGKYAKMLALDSKTLLITPNKNAPMENMMMVNWADSYESFEEKQIQKPLSWRNKIRLKIYKKLRNKLLQKGIL
[1]; FT copy nr as in table 7
  LNDFH-III, % of total HMO molar (mM) content produced by each strain: do not produce any
